This is an account of results in US20170081400A1 (CEPHALON, published 2017).

For assay [1], the target named is T1, human TL1A extracellular domain with N-terminal HIS and FLAG tag (human) (UniProt O95150).
T1 sequence: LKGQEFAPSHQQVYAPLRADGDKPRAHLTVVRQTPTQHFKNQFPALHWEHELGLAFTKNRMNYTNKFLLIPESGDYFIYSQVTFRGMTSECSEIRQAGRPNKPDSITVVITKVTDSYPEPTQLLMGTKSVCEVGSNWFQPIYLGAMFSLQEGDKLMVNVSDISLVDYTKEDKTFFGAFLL
Description: cell-based or functional assay.

Assay [2] concerns the target T2, human TL1A extracellular domain with N-terminal HIS and FLAG tag (human, UniProt O95150 72-251).
T2 construct: the whole entry is named
T2 sequence: T1 sequence
Description: SPR Run 4, purified Ab captured on Protein A, TL1A 5 ug/mL, timepoint 44. In short, it runs like this:
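Biacore T200 SPR with antibody (supernatant or Protein A-purified) captured on Protein A amine-coupled to a CM5 chip; capture level recorded as response change at end of capture.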

In assay [3] the target is T2, human TL1A extracellular domain with …. Description: SPR Run 4, purified Ab captured on Protein A, TL1A 5 ug/mL, timepoint 220. An outline of the steps: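 Double-referenced sensorgrams (reference flow cell and buffer blank subtracted) provided the late-dissociation response for antibodies held by chip-bound Protein A. These antibodies came either as expression supernatant or as Protein A-purified material. The capture amount differed per run and was measured as the RU increase after loading.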

For assay [4] the target is unchanged. Description: SPR Run 6, purified Ab captured on Protein A, TL1A 5 ug/mL, timepoint 44. The text has this: (§1) 1.5. Antibody expression and antigen binding as determined by SPR. Using a CM5 sensor chip (GE Healthcare) Protein A (Pierce) was coupled to the chip surface using an amine coupling kit (GE Healthcare). Protein A was coupled on flow cell 1 and 2 (or alternatively 3 and 4) using a BIACORE® T200. […] The amount of supernatant or purified protein (as well as the concentration) injected during the capture stage varied between runs and is specified in the header of the Tables 3-11. At the end of injection of the supernatant or purified antibody the change in response units was measured. This value was reported as Capture Level in Tables 3-11. […] The response units were measured prior to the end of the dissociation phase. […] The sensorgrams were double referenced (flow cell 2 is subtracted from flow cell 1 and a buffer blank). As there were a large number of antibody variants to screen, these were screened across different runs (Tables 3-11). […] A summary of the conditions used in each run is below:
(§2) 2.1. […] In some experiment the antibodies were purified using Protein A chromatography (See 1.4) and purified antibodies were used in BIACORE® (GE Healthcare) experiments.

Assay [5] shares this target. Description: SPR Run 6, purified Ab captured on Protein A, TL1A 5 ug/mL, timepoint 170.
Source text: as §1, §2

Changes are numbered by the printed parent chain.

B1: 320-326 (antibody, human IgG1, name in Kabat numbering, V domains shown)
VH: QVQLVQSGAEVKKPGASVKVSCKASGYTFTSYDINWVRQAPGQGLEWMGWLNPNSGNTGYAQKFQGRVTMTADRSTSTAYMELSSLRSEDTAVYYCAREVPETAAFEYWGQGTLVTVSS
VL: QSVLTQPPSVSGAPGQRVTISCTSSSSDIGAGLGVHWYQQLPGTAPKLLIEGYYNRPSGVPDRFSGSKSGTSASLTITGLLPEDEGDYYCQSSDGTLSALFGGGTKLTVLG
notes: human IgG1, lambda
Consider B1, for which, in assay [1], the Antibody IC50, TL1A induced caspase potency assay in TF-1 cells was determined as 0.03 µg/mL and the Fold improvement over 320-179, TL1A induced caspase potency assay in TF-1 cells came out at 2 fold. Also, the “TL1A Binding Level (Early)” value in assay [2] worked out at 126 RU. Moreover, in assay [3], the “TL1A Binding Level (Late)” value amounted to 120 RU.

B2: 320-437 (antibody, human IgG1, name in Kabat numbering, V domains shown)
VH: B1 VH with S31Y
VL: B1 VL with S93Y
notes: human IgG1, lambda
Take B2: the “TL1A Binding Level (Early)” value in assay [4] is 119 RU. Moreover, the “TL1A Binding Level (Late)” value in assay [5] is 109 RU.

B3: 320-433 (antibody, human IgG1, name in Kabat numbering, V domains shown)
VH: B1 VH with S31D
VL: B1 VL with S93Y
notes: human IgG1, lambda
Take B3: the “TL1A Binding Level (Early)” value in assay [4] came out at 90 RU. Moreover, the “TL1A Binding Level (Late)” value in assay [5] came to 83 RU.

B4: 320-458 (antibody, human IgG1, name in Kabat numbering, V domains shown)
VH: B1 VH with I34H
VL: B1 VL with S93Y
notes: human IgG1, lambda
On to B4, for which the “TL1A Binding Level (Early)” value in assay [4] was found to be 59 RU. Also, the “TL1A Binding Level (Late)” value in assay [5] was found to be 53 RU.

B5: 320-328 (antibody, human IgG1, name in Kabat numbering, V domains shown)
VH: B1 VH
VL: B1 VL with S93H
notes: human IgG1, lambda
For B5, in assay [1], the Antibody IC50, TL1A induced caspase potency assay in TF-1 cells came to 0.02 µg/mL and the Fold improvement over 320-179, TL1A induced caspase potency assay in TF-1 cells came out at 1 fold. In assay [2], the “TL1A Binding Level (Early)” value was found to be 155 RU. Further, the “TL1A Binding Level (Late)” value in assay [3] is 146 RU.

B6: 320-449 (antibody, human IgG1, name in Kabat numbering, V domains shown)
VH: B1 VH with D33H
VL: B1 VL with S93Y
notes: human IgG1, lambda
Turning to B6, the “TL1A Binding Level (Early)” value in assay [4] is 76 RU. Further, the “TL1A Binding Level (Late)” value in assay [5] worked out at 59 RU.

B7: 320-460 (antibody, human IgG1, name in Kabat numbering, V domains shown)
VH: B1 VH with I34L
VL: B1 VL with S93Y
notes: human IgG1, lambda
On to B7, for which the “TL1A Binding Level (Early)” value in assay [4] is 114 RU. Besides, in assay [5], the “TL1A Binding Level (Late)” value was determined as 105 RU.

B8: 320-444 (antibody, human IgG1, name in Kabat numbering, V domains shown)
VH: B1 VH with Y32L
VL: B1 VL with S93Y
notes: human IgG1, lambda
In the case of B8, in assay [4], the “TL1A Binding Level (Early)” value turned out to be 107 RU. Also, the “TL1A Binding Level (Late)” value in assay [5] was 95 RU.

B9: 320-440 (antibody, human IgG1, name in Kabat numbering, V domains shown)
VH: B1 VH with Y32Q
VL: B1 VL with S93Y
notes: human IgG1, lambda
As to B9, the “TL1A Binding Level (Early)” value in assay [4] was determined as 108 RU. The “TL1A Binding Level (Late)” value in assay [5] worked out at 97 RU.

B10: 320-459 (antibody, human IgG1, name in Kabat numbering, V domains shown)
VH: B1 VH with I34K
VL: B1 VL with S93Y
notes: human IgG1, lambda
With B10, in assay [4], the “TL1A Binding Level (Early)” value stood at 20 RU. Further, the “TL1A Binding Level (Late)” value in assay [5] worked out at 17 RU.

B11: 320-436 (antibody, human IgG1, name in Kabat numbering, V domains shown)
VH: B1 VH with S31W
VL: B1 VL with S93Y
notes: human IgG1, lambda
Take B11: in assay [4], the “TL1A Binding Level (Early)” value came to 129 RU. Moreover, the “TL1A Binding Level (Late)” value in assay [5] was found to be 118 RU.

B12: 320-434 (antibody, human IgG1, name in Kabat numbering, V domains shown)
VH: B1 VH with S31K
VL: B1 VL with S93Y
notes: human IgG1, lambda
B12: the “TL1A Binding Level (Early)” value in assay [4] came to 125 RU. Further, in assay [5], the “TL1A Binding Level (Late)” value was determined as 113 RU.

B13: 320-451 (antibody, human IgG1, name in Kabat numbering, V domains shown)
VH: B1 VH with D33L
VL: B1 VL with S93Y
notes: human IgG1, lambda
On to B13, for which, in assay [4], the “TL1A Binding Level (Early)” value came out at 19 RU. Further, the “TL1A Binding Level (Late)” value in assay [5] was determined as 8 RU.

B14: 320-455 (antibody, human IgG1, name in Kabat numbering, V domains shown)
VH: B1 VH with I34S
VL: B1 VL with S93Y
notes: human IgG1, lambda
B14: in assay [4], the “TL1A Binding Level (Early)” value worked out at 27 RU. Besides, the “TL1A Binding Level (Late)” value in assay [5] was found to be 23 RU.

B15: 320-447 (antibody, human IgG1, name in Kabat numbering, V domains shown)
VH: B1 VH with D33S
VL: B1 VL with S93Y
notes: human IgG1, lambda
With B15, the “TL1A Binding Level (Early)” value in assay [4] was 37 RU. Besides, the “TL1A Binding Level (Late)” value in assay [5] was determined as 13 RU.

B16: 320-441 (antibody, human IgG1, name in Kabat numbering, V domains shown)
VH: B1 VH with Y32D
VL: B1 VL with S93Y
notes: human IgG1, lambda
As for B16, the “TL1A Binding Level (Early)” value in assay [4] was 80 RU. Further, in assay [5], the “TL1A Binding Level (Late)” value stood at 67 RU.

B17: 320-432 (antibody, human IgG1, name in Kabat numbering, V domains shown)
VH: B1 VH with S31Q
VL: B1 VL with S93Y
notes: human IgG1, lambda
As to B17, in assay [4], the “TL1A Binding Level (Early)” value was 116 RU. Also, the “TL1A Binding Level (Late)” value in assay [5] is 106 RU.

B18: 320-439 (antibody, human IgG1, name in Kabat numbering, V domains shown)
VH: B1 VH with Y32S
VL: B1 VL with S93Y
notes: human IgG1, lambda
Regarding B18, in assay [4], the “TL1A Binding Level (Early)” value was determined as 119 RU. Besides, the “TL1A Binding Level (Late)” value in assay [5] was 108 RU.

B19: 320-456 (antibody, human IgG1, name in Kabat numbering, V domains shown)
VH: B1 VH with I34Q
VL: B1 VL with S93Y
notes: human IgG1, lambda
For B19, the “TL1A Binding Level (Early)” value in assay [4] came to 52 RU. Moreover, in assay [5], the “TL1A Binding Level (Late)” value was determined as 46 RU.

B20: 320-442 (antibody, human IgG1, name in Kabat numbering, V domains shown)
VH: B1 VH with Y32H
VL: B1 VL with S93Y
notes: human IgG1, lambda
On to B20, for which the “TL1A Binding Level (Early)” value in assay [4] worked out at 124 RU. For the same molecule, the “TL1A Binding Level (Late)” value in assay [5] worked out at 113 RU.

B21: 320-435 (antibody, human IgG1, name in Kabat numbering, V domains shown)
VH: B1 VH with S31L
VL: B1 VL with S93Y
notes: human IgG1, lambda
On to B21, for which the “TL1A Binding Level (Early)” value in assay [4] stood at 92 RU. In addition, in assay [5], the “TL1A Binding Level (Late)” value came out at 83 RU.

B22: 320-454 (antibody, human IgG1, name in Kabat numbering, V domains shown)
VH: B1 VH with I34A
VL: B1 VL with S93Y
notes: human IgG1, lambda
For the molecule B22, the “TL1A Binding Level (Early)” value in assay [4] was 43 RU. Moreover, the “TL1A Binding Level (Late)” value in assay [5] came out at 37 RU.

B23: 320-345 (antibody, human IgG1, name in Kabat numbering, V domains shown)
VH: B1 VH
VL: B1 VL with S93Y, G95K
notes: human IgG1, lambda
In assay [1], B23 yielded an Antibody IC50, TL1A induced caspase potency assay in TF-1 cells of 0.02 µg/mL and a Fold improvement over 320-179, TL1A induced caspase potency assay in TF-1 cells of 1 fold. Moreover, the “TL1A Binding Level (Early)” value in assay [2] was found to be 163 RU. Besides, in assay [3], the “TL1A Binding Level (Late)” value is 154 RU.

B24: 320-461 (antibody, human IgG1, name in Kabat numbering, V domains shown)
VH: B1 VH with I34W
VL: B1 VL with S93Y
notes: human IgG1, lambda
Regarding B24, the “TL1A Binding Level (Early)” value in assay [4] came out at 87 RU. In assay [5], the “TL1A Binding Level (Late)” value was 82 RU.

B25: 320-452 (antibody, human IgG1, name in Kabat numbering, V domains shown)
VH: B1 VH with D33W
VL: B1 VL with S93Y
notes: human IgG1, lambda
On to B25, for which the “TL1A Binding Level (Early)” value in assay [4] was 84 RU. The “TL1A Binding Level (Late)” value in assay [5] came to 78 RU.

B26: 320-438 (antibody, human IgG1, name in Kabat numbering, V domains shown)
VH: B1 VH with Y32A
VL: B1 VL with S93Y
notes: human IgG1, lambda
On to B26, for which the “TL1A Binding Level (Early)” value in assay [4] came to 126 RU. In addition, the “TL1A Binding Level (Late)” value in assay [5] is 116 RU.

B27: 320-446 (antibody, human IgG1, name in Kabat numbering, V domains shown)
VH: B1 VH with D33A
VL: B1 VL with S93Y
notes: human IgG1, lambda
Consider B27, for which the “TL1A Binding Level (Early)” value in assay [4] turned out to be 18 RU. Also, the “TL1A Binding Level (Late)” value in assay [5] is 8 RU.

B28: 320-453 (antibody, human IgG1, name in Kabat numbering, V domains shown)
VH: B1 VH with D33Y
VL: B1 VL with S93Y
notes: human IgG1, lambda
Regarding B28, the “TL1A Binding Level (Early)” value in assay [4] was found to be 111 RU. In addition, the “TL1A Binding Level (Late)” value in assay [5] worked out at 104 RU.
